Test [1] deals with T1, E1E2 of HCV isolate H77 (hepatitis C virus genotype 1a, isolate …, UniProt P27958 192-383; P27958 384-746). Kind of test: cell-based or functional assay.
Another test addresses T2, E2412-611 (hepatitis C virus isolate H77, UniProt P27958 412-611).
T2 chain: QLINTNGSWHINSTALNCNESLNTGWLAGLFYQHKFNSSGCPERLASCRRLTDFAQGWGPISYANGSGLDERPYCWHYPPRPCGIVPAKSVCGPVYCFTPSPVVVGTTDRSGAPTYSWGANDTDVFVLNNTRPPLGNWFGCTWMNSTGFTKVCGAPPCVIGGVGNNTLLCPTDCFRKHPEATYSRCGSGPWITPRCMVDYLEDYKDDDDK
Kind of test: capture ELISA, coated mAb, 293T supernatant. On the technique in general: In an ELISA, binding on a coated surface is turned into a signal by an enzyme label.

The next test deals with E2412-589 (hepatitis C virus isolate H77, UniProt P27958 412-588). Kind of test: capture ELISA, coated mAb, 293T supernatant.
Another test has as its target E2412-574 (hepatitis C virus isolate H77, UniProt P27958 412-574). Kind of test: capture ELISA, coated mAb, 293T supernatant.
Another test deals with T3, E2456-645 (hepatitis C virus isolate H77, UniProt P27958 456-645).
T3 chain: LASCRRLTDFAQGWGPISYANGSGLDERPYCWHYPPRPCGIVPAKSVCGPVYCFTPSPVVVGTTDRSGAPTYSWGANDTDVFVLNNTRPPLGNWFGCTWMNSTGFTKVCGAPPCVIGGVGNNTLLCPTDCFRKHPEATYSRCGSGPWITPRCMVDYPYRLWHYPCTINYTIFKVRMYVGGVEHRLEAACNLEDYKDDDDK
Nature of the test: capture ELISA, coated mAb, 293T supernatant.

The target of another test is T4, E2492-645 (hepatitis C virus isolate H77, UniProt P27958 492-645).
T4 chain: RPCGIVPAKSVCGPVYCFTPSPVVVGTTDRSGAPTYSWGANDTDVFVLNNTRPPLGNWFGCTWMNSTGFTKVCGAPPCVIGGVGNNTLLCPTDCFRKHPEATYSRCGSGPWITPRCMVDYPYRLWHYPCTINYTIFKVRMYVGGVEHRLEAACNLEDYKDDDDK
Kind of test: capture ELISA, coated mAb, 293T supernatant.

In test [2] the target is T1, E1E2 of HCV isolate H77. Nature of the test: ELISA, mAb inhibits E1E2 (H77) binding to coated CD81-LEL.
Test [3] concerns the target vaccinia-expressed E1E2 (isolate HCV-1) (hepatitis C virus genotype 1a, isolate …, UniProt P26664 192-383; P26664 384-746). Nature of the test: ELISA on lectin-captured E1E2; apparent affinity = half-maximal binding.
Test [4] has as its target T1, E1E2 of HCV isolate H77. The test is described as above.

B1: MAb AR3C (antibody, V domains shown)
VH: LEQSGAEVKKPGSSVKVSCETSGGTLDNYALNWVRQAPGQGLEWIGGVVPLFGTTRNAQKFQGRVTISDDKSTGTGHMELRSLRSEDTAVYYCVRSVTPRYCGGGFCYGEFDYWGQGTLVTVSS
VL: ELTQSPATLSVSPGERATLSCRASQSVSSNLAWYQQKPGQAPRLLIYGASTRATGIPARFSGSGSGTDFTLTVSRLEPEDSAVYFCQQYRSPLTFGGGTKVEIKR
notes: also called IgG1 AR3C
In the case of B1, in the test with E1E2 of HCV isolate H77 [1], the “Neutralizing activity (IC50), HCVpp” value was found to be 1 µg/mL. Besides, the binding result with E2412-611, with E2412-589, in the test with E2412-574, with E2456-645 and with E2492-645 was “no binding” each time. Also, in the test with E1E2 of HCV isolate H77 [2], the half-maximal inhibitory concentration (IC50) amounted to 2 nM. For the same molecule, the 50% effective concentration (EC50) in test [3] turned out to be 1.4 nM; with E1E2 of HCV isolate H77 [4], 2.3 nM.

The term IC50 denotes the concentration needed to halve the response being measured. The EC50 is the concentration at which the effect is half-maximal.

These data come from patent US20100104555A1 (Scripps Research, published 2010).
